According to patent US20210403591A1 (OSSIANIX, published 2021):

What was measured:
[1] = molecular target: T1, mTfR-1 F224A on Expi293 cells (mouse, UniProt Q62351 1-763); test: FACS, transfected Expi293 cells; mutant poorly expressed
T1 construct: whole, on cells
Method: (§1) Transfected Expi293 cells were harvested and 2×10⁵ cells were transferred into V-bottom 96-well plate for staining. The cells were blocked in PBS containing 1% BSA (FACS buffer) for 10 min on ice, centrifuged to remove the buffer and 1 μl of 8D3-hFc formatted antibody, Clone C-hFc or Clone C variants 18 and 13 (Table 1), all at 1 mg/ml, was added to the wells. The cells were co-stained with mouse Tf-Alexa647 (Jackson ImmunoResearch). After 30 minutes on ice, the cells were washed and incubated with anti-hFc-PE (eBioscience) for 20 minutes on ice, washed again and resuspended in […] of FACS buffer containing 5 μl of propidium iodide (PI) to exclude dead cells from the analysis. The percentage of double-positive cells that stained with mTf and the tested antibody was determined on a CytoFlex cytometer (Beckman Coulter). The percentage of cells in the double positive quadrant (Q2) for WT mTfR-1 was used for normalization.

[2] = molecular target: T2, mTfR-1 L331A on Expi293 cells (mouse, UniProt Q62351 1-763); test: as above
T2 construct: whole, on cells
T2 sequence (Q62351 whole entry L331A): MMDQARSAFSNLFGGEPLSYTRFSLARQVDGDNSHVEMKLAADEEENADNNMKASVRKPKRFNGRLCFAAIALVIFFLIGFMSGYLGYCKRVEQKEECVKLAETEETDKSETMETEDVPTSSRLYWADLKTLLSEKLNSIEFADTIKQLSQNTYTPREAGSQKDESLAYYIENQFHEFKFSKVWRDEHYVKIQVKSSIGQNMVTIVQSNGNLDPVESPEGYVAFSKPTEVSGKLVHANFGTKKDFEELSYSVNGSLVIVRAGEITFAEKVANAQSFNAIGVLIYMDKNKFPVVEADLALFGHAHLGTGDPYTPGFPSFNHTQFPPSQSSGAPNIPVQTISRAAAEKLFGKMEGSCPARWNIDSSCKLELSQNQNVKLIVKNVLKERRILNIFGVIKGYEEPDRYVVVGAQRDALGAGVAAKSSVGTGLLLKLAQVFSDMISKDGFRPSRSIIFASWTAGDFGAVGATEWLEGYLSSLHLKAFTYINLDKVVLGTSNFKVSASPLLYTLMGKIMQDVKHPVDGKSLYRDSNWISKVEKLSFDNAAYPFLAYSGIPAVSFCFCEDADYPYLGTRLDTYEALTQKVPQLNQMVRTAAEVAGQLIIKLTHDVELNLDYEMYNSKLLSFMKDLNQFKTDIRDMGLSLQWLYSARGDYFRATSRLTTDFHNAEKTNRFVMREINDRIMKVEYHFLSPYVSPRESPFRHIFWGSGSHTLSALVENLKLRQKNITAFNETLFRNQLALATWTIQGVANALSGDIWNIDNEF
Method: as §1

[3] = molecular target: T3, mTfR-1 V379A on Expi293 cells (mouse, UniProt Q62351 1-763); test: as above
T3 construct: whole, on cells
T3 sequence (Q62351 whole entry V379A): as the sequence (Q62351 whole entry L331A) above, with A331L, V379A counted along it
Method: as §1

[4] = molecular target: T4, mTfR-1 N201A on Expi293 cells (mouse, UniProt Q62351 1-763); test: as above
T4 construct: whole, on cells
T4 sequence (Q62351 whole entry N201A): as the sequence (Q62351 whole entry L331A) above, with N201A, A331L counted along it
Method: as §1

[5] = molecular target: T5, mTfR-1 A278T on Expi293 cells (mouse, UniProt Q62351 1-763); test: as above
T5 construct: whole, on cells
T5 sequence (Q62351 whole entry A278T): as the sequence (Q62351 whole entry L331A) above, with A278T, A331L counted along it
Method: as §1

[6] = molecular target: T6, mTfR-1 I334A on Expi293 cells (mouse, UniProt Q62351 1-763); test: as above
T6 construct: whole, on cells
T6 sequence (Q62351 whole entry I334A): as the sequence (Q62351 whole entry L331A) above, with A331L, I334A counted along it
Method: as §1

[7] = molecular target: T7, mTfR-1 N381A on Expi293 cells (mouse, UniProt Q62351 1-763); test: as above
T7 construct: whole, on cells
T7 sequence (Q62351 whole entry N381A): as the sequence (Q62351 whole entry L331A) above, with A331L, N381A counted along it
Method: as §1

[8] = molecular target: T8, mTfR-1 L256A on Expi293 cells (mouse, UniProt Q62351 1-763); test: as above
T8 construct: whole, on cells
T8 sequence (Q62351 whole entry L256A): as the sequence (Q62351 whole entry L331A) above, with L256A, A331L counted along it
Method: as §1

[9] = molecular target: T9, mTfR-1 S231A on Expi293 cells (mouse, UniProt Q62351 1-763); test: FACS, transfected Expi293 cells
T9 construct: whole, on cells
T9 sequence (Q62351 whole entry S231A): as the sequence (Q62351 whole entry L331A) above, with S231A, A331L counted along it
Method: as §1

[10] = molecular target: T10, mTfR-1 G330A on Expi293 cells (mouse, UniProt Q62351 1-763); test: FACS, transfected Expi293 cells
T10 construct: whole, on cells
T10 sequence (Q62351 whole entry G330A): as the sequence (Q62351 whole entry L331A) above, with G330A, A331L counted along it
Method: as §1

[11] = molecular target: T11, mTfR-1 E229A on Expi293 cells (mouse, UniProt Q62351 1-763); test: FACS, transfected Expi293 cells
T11 construct: whole, on cells
T11 sequence (Q62351 whole entry E229A): as the sequence (Q62351 whole entry L331A) above, with E229A, A331L counted along it
Method: as §1

[12] = molecular target: T12, mTfR-1 S196A on Expi293 cells (mouse, UniProt Q62351 1-763); test: FACS, transfected Expi293 cells
T12 construct: whole, on cells
T12 sequence (Q62351 whole entry S196A): as the sequence (Q62351 whole entry L331A) above, with S196A, A331L counted along it
Method: as §1

[13] = molecular target: T13, mTfR-1 N333A on Expi293 cells (mouse, UniProt Q62351 1-763); test: FACS, transfected Expi293 cells
T13 construct: whole, on cells
T13 sequence (Q62351 whole entry N333A): as the sequence (Q62351 whole entry L331A) above, with A331L, N333A counted along it
Method: as §1

[14] = molecular target: T14, mTfR-1 K384A on Expi293 cells (mouse, UniProt Q62351 1-763); test: FACS, transfected Expi293 cells
T14 construct: whole, on cells
T14 sequence (Q62351 whole entry K384A): as the sequence (Q62351 whole entry L331A) above, with A331L, K384A counted along it
Method: as §1

[15] = molecular target: T15, mTfR-1 P227A on Expi293 cells (mouse, UniProt Q62351 1-763); test: FACS, transfected Expi293 cells
T15 construct: whole, on cells
T15 sequence (Q62351 whole entry P227A): as the sequence (Q62351 whole entry L331A) above, with P227A, A331L counted along it
Method: as §1

[16] = molecular target: T16, mTfR-1 I378A on Expi293 cells (mouse, UniProt Q62351 1-763); test: FACS, transfected Expi293 cells
T16 construct: whole, on cells
T16 sequence (Q62351 whole entry I378A): as the sequence (Q62351 whole entry L331A) above, with A331L, I378A counted along it
Method: as §1

[17] = molecular target: T17, mTfR-1 Q327A on Expi293 cells (mouse, UniProt Q62351 1-763); test: FACS, transfected Expi293 cells
T17 construct: whole, on cells
T17 sequence (Q62351 whole entry Q327A): as the sequence (Q62351 whole entry L331A) above, with Q327A, A331L counted along it
Method: as §1

[18] = molecular target: T18, recombinant human TfR-1, His-tagged (Sino Biological 11020-H07H) (human, UniProt P02786 89-760); test: SPR, His-captured TfR1
T18 construct: bought; His-tagged; also called hTfR1; hTfR-1
T18 sequence (P02786 89-760 limits assumed): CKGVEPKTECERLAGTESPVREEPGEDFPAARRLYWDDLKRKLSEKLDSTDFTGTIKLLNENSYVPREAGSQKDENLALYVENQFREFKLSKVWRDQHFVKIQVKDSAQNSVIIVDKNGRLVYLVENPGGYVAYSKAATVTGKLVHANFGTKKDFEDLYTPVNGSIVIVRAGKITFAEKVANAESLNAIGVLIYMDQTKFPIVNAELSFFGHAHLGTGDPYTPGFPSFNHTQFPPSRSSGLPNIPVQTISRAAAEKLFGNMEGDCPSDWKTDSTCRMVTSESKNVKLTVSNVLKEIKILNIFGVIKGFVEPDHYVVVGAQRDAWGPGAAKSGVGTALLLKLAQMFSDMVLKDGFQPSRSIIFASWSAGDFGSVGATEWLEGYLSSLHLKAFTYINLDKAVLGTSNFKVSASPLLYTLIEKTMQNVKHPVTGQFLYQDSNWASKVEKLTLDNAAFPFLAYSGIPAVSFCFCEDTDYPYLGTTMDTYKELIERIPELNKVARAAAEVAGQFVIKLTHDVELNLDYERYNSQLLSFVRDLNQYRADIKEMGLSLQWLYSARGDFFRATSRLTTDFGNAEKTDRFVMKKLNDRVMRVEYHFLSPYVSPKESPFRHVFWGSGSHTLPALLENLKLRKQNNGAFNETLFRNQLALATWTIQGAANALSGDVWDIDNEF
Method: (§2) Detailed binding kinetic analyses were performed to gain a better understanding of the relationship between affinity and brain penetration of the Clone C variants. Biacore surface plasmon resonance (SPR) analysis using immobilised mouse and human TfR-1 was performed for selected clones (Table 2).
(§3) Binding kinetics of VNAR-Fcs was determined by surface plasmon resonance (Biacore T200, GE Healthcare). CMS chips were coated with anti-His antibodies (His Capture Kit, GE Healthcare) as recommended by the manufacturer and human or mouse his-tagged TfR1 (SinoBiological) at 10 ug/mL in HBS-EP+ (GE Healthcare) was captured at flow rate 10 ul/min (contact time 120 s). […] A flow cell without TfR1 captured served as a reference. Sensorgrams were fitted and kinetic constants were determined using Biacore T200 Evaluation software. Chips were regenerated in 10 mM Glycine-HCl, pH 1.5 (contact time: 120 s at flow rate 30 ul/min).

[19] = molecular target: T19, recombinant mouse TfR-1, His-tagged (Sino Biological 50741-M07H) (mouse, UniProt Q62351 89-763); test: SPR, His-captured TfR1
T19 construct: bought; His-tagged; also called mTfR1; mTfR-1
T19 sequence (Q62351 89-763 limits assumed, stated change not applied): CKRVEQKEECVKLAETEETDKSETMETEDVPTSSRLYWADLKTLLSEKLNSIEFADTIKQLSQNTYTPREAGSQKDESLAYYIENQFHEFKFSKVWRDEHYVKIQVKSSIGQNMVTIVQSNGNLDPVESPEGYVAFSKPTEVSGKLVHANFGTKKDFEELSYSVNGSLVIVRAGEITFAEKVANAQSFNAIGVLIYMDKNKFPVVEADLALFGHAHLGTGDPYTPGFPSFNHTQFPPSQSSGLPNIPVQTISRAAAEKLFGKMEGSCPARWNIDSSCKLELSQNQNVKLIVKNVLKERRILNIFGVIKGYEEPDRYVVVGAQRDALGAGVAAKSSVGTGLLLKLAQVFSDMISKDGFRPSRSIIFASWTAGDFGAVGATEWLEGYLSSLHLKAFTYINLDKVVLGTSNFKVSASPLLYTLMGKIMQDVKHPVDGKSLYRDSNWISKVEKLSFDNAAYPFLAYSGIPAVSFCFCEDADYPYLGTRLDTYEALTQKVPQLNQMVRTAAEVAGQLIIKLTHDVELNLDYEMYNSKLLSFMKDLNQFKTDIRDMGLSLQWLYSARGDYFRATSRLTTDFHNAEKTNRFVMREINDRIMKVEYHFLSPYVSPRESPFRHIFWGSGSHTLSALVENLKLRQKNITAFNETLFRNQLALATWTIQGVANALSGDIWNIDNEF
Method: as §2, §3

[20] = molecular target: T20, purified mTfR1 mutant M1 (AGS) (mouse, UniProt Q62351 89-763); test: ELISA, coated purified mTfR-1
T20 construct: also called N253A
T20 sequence (Q62351 other isoform, or with tags, fused parts or gaps mutant): as the sequence (Q62351 89-763 limits assumed, stated change not applied) above, with N165A counted along it

[21] = molecular target: T21, mTfR-1 I192A on Expi293 cells (mouse, UniProt Q62351 1-763); test: FACS, transfected Expi293 cells; mutant poorly expressed
T21 construct: whole, on cells; also called 1192A
T21 sequence (Q62351 whole entry I192A): as the sequence (Q62351 whole entry L331A) above, with I192A, A331L counted along it
Method: as §1

[22] = molecular target: T22, mTfR-1 V194A on Expi293 cells (mouse, UniProt Q62351 1-763); test: FACS, transfected Expi293 cells
T22 construct: whole, on cells
T22 sequence (Q62351 whole entry V194A): as the sequence (Q62351 whole entry L331A) above, with V194A, A331L counted along it
Method: as §1

[23] = molecular target: T23, mTfR-1 Q193A on Expi293 cells (mouse, UniProt Q62351 1-763); test: FACS, transfected Expi293 cells
T23 construct: whole, on cells
T23 sequence (Q62351 whole entry Q193A): as the sequence (Q62351 whole entry L331A) above, with Q193A, A331L counted along it
Method: as §1

T1 sequence (Q62351 whole entry F224A): as the sequence (Q62351 whole entry L331A) above, with F224A, A331L counted along it

% double-positive cells vs WT [1] [%]	% double-positive cells vs WT [2] [%]	% double-positive cells vs WT [3] [%]	% double-positive cells vs WT [4] [%]	% double-positive cells vs WT [5] [%]	% double-positive cells vs WT [6] [%]	% double-positive cells vs WT [7] [%]	% double-positive cells vs WT [8] [%]	% double-positive cells vs WT [9] [%]	% double-positive cells vs WT [10] [%]	% double-positive cells vs WT [11] [%]	% double-positive cells vs WT [12] [%]	% double-positive cells vs WT [13] [%]	% double-positive cells vs WT [14] [%]	% double-positive cells vs WT [15] [%]	% double-positive cells vs WT [16] [%]	% double-positive cells vs WT [17] [%]	Kd [18] [nM]	koff [18] [s⁻¹]	kon [18] [M⁻¹ s⁻¹]	other results	Binder
0	0	0	0	12	0	11	0	101	87	43	47	94	85	47	115	85	0.574	0.00017	297000	Kd [19]: 0.165 nM; koff [19]: 4.09e-05 s⁻¹; kon [19]: 248000 M⁻¹ s⁻¹; EC50 [20]: 1.1 nM	Clone C variant 13 VNAR-hFc (Fc fusion, not shown: a dimerising Fc or GST, also called Clone C v13; Clone C var; 13) ARVDQTPQTITKETGESLTINCVLRDSNCALSSTYWYRKKSGSTNEENISKGGRYVETVNSGSKSFSLRINDLTVEDSGTYRCNVVQYPQQDNYFWCDVYGDGTAVTVN
0	0	0	0	21	0	0	0	173	231	51	104	161	147	20	80	119	0.314	0.000113	360000	% double-positive cells vs WT [21]: 18%; % double-positive cells vs WT [22]: 199%; % double-positive cells vs WT [23]: 178%; Kd [19]: 0.863 nM; koff [19]: 0.000269 s⁻¹; kon [19]: 312000 M⁻¹ s⁻¹; EC50 [20]: 5.9 nM	Clone C variant 18 VNAR-hFc (Fc fusion, not shown: a dimerising Fc or GST, also called Clone C v18; Clone C var; 18) ARVDQTPQTITKETGESLTINCVLRDSNCALSSTYWYRKKSGSTNEENISKGGRYVETVNSGSKSFSLRINDLTVEDSGTYRCNVVQYPQYPNYFWCDVYGDGTAVTVN
